Reference: patent publication US20030077318A1

What follows are substances tested against soluble H-2K^b (K^bsol), heterodimer of truncated K^b heavy chain and murine β-2 microglobulin, purified empty from Drosophila cells (murine) (UniProt P01901) (assay: competitive RIA against [^125I]VSV-8 on K^bsol, P30 gel filtration, 23° C.).

Q: Which Kd does the source give for OVA-8 (peptide) here?
A: Its Kd is 4.1 nM.

Q: OVA-9C (peptide) was tested. Which Kd did it give?
A: Its Kd is 11 nM.

Q: How did the Kd turn out when OVA-10C (peptide) was run?
A: The Kd was 14 nM.

Q: How did the Kd turn out when OVA-10N (peptide) was run?
A: The Kd was 280 nM.
